According to paper PMC3157250 (2011):

B1: HCMV protease (HCMV Pr) (protein)
chain: MTMDEQQSQAVAPVYVGGFLARYDQSPDEAELLLPRDVVEHWLHAQGQGQPSLSVALPLNINHDDTAVVGHVAAMQSVRDGLFCLGCVTSPRFLEIVRRASEKSELVSRGPVSPLQPDKVVEFLSGSYAGLSLSSRRCDDVEAATSLSGSETTPFKHVALCSVGRRRGTLAVYGRDPEWVTQRFPDLTAADRDGLRAQWQRCGSTAVDASGDPFRSDSYGLLGNSVDALYIRERLPKLRYDKQLVGVTERESYVKA

What was measured:
[1] = target: KSHV protease (Kaposi's sarcoma-associated herpesvirus) (UniProt Q2HRB6); conditions: cited from earlier work
[2] = target: the molecule itself; assay: fluorescence-based substrate cleavage kinetics assay

Row | Molecule | Kd [1] | Kd [2]
1 | KSHV protease (from UniProt Q2HRB6) | 1700 nM | 
2 | B1 |  | 1300 nM
